Patent publication US20240343771A1 (Chugai, published 2024)
Numbering of substitutions follows the chain as printed. Numbers in names are those of the source.

T1: human IL-12 (human, UniProt P29460 23-328; P29459 23-219)
T1 construct: also called Interleukin-12
T1 sequence 1: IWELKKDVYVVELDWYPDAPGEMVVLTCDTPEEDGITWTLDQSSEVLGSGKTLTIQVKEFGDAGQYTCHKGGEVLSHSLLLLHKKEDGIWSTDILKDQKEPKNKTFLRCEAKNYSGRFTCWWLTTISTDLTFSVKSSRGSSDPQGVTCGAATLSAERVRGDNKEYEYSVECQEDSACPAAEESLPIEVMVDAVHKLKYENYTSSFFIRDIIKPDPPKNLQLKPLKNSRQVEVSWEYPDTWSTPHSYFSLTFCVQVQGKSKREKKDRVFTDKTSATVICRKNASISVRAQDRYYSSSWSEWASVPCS
T1 sequence 2: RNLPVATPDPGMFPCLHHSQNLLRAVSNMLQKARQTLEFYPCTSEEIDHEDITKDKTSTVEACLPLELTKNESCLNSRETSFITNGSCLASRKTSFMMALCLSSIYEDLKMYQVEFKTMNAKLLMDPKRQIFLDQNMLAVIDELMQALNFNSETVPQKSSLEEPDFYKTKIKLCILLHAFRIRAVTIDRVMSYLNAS

B1: Anti-IL-12 antibody Ab1 (Ab101H-12aa-C8/Ab102L-SK1) (antibody)
heavy: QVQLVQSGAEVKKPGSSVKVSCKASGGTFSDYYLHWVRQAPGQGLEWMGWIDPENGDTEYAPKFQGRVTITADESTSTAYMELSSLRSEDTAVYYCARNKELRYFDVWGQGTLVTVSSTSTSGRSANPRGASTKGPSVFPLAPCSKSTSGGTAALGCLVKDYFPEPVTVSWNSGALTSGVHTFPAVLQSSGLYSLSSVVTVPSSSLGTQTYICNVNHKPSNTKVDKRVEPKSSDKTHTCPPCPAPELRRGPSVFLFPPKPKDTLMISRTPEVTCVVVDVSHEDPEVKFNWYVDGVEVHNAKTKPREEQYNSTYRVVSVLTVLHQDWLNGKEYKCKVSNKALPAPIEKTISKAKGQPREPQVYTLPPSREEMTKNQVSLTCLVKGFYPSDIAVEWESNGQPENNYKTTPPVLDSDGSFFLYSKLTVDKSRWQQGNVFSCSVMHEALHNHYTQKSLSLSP
light: DIVMTQSPLSLPVTPGEPASISCRASQSISINLHWYQQKPGQAPRLLIYFASQSISGVPSRFSGSGSGTDFTLTISSLQPEDFATYYCQQSNSFPLTFGQGTKVEIKRTVAAPSVFIFPPSDEQLKSGTASVVCLLNNFYPREAKVQWKVDNALQSGNSQESVTEQDSKDSTYSLSSTLTLSKADYEKHKVYACEVTHQGLSSPVTKSFNRGEC
notes: Homodimer of light chain and heavy chain; also called -/- (control)
B2: Anti-IL-12 antibody Ab1 variant -/A43Q VL (antibody, V domains shown)
VH: QVQLVQSGAEVKKPGSSVKVSCKASGGTFSDYYLHWVRQAPGQGLEWMGWIDPENGDTEYAPKFQGRVTITADESTSTAYMELSSLRSEDTAVYYCARNKELRYFDVWGQGTLVTVSS
VL: DIVMTQSPLSLPVTPGEPASISCRASQSISINLHWYQQKPGQQPRLLIYFASQSISGVPSRFSGSGSGTDFTLTISSLQPEDFATYYCQQSNSFPLTFGQGTKVEIKR
notes: Ab1 with VH/VL interface substitutions; Kabat numbering
B3: Anti-IL-12 antibody Ab1 variant -/F98A VL (antibody)
heavy: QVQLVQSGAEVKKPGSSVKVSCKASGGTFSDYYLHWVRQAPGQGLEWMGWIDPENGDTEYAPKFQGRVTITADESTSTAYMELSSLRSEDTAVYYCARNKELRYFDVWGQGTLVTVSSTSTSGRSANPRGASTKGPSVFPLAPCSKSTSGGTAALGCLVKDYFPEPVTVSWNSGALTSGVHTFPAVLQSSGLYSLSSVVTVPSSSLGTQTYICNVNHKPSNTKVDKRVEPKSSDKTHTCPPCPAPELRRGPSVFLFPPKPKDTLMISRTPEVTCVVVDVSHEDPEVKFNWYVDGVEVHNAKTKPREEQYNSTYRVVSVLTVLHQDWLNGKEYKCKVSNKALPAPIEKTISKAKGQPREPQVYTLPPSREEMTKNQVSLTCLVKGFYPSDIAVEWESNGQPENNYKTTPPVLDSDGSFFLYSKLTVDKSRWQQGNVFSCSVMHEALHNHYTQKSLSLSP
light: B1 light with F98A
notes: as for B2
B4: Anti-IL-12 antibody Ab1 variant -/F98L VL (antibody)
heavy: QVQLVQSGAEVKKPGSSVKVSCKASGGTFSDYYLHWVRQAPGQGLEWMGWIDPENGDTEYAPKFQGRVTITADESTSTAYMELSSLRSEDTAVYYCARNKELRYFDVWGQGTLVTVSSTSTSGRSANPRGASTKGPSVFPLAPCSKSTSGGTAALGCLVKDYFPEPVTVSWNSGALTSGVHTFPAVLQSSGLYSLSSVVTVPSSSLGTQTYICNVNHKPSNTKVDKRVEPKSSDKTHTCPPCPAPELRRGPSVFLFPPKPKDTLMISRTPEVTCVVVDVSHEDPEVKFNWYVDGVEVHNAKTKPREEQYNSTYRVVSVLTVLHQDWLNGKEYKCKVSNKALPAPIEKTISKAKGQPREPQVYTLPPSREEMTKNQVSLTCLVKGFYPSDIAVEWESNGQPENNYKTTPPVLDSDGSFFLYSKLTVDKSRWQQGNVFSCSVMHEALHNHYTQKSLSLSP
light: B1 light with F98L
notes: as for B2
B5: Anti-IL-12 antibody Ab1 variant -/F98M VL (antibody)
heavy: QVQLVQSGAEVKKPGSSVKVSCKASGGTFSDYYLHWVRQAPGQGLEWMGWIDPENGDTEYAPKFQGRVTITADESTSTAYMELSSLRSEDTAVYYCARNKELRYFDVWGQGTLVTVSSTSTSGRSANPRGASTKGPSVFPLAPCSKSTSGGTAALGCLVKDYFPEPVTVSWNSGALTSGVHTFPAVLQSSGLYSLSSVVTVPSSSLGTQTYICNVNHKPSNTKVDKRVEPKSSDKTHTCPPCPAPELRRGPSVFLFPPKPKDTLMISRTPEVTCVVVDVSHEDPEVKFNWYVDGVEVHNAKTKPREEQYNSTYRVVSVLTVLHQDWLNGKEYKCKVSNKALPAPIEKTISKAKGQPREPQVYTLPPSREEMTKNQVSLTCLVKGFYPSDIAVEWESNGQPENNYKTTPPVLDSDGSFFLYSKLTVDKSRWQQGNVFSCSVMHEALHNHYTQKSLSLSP
light: B1 light with F98M
notes: as for B2
B6: Anti-IL-12 antibody Ab1 variant -/L46Q VL (antibody, V domains shown)
VH: B2 VH
VL: B2 VL with Q43A, L46Q
notes: as for B2
B7: Anti-IL-12 antibody Ab1 variant -/P44A VL (antibody, V domains shown)
VH: B2 VH
VL: B2 VL with Q43A, P44A
notes: as for B2
B8: Anti-IL-12 antibody Ab1 variant -/P44Q VL (antibody, V domains shown)
VH: B2 VH
VL: B2 VL with Q43A, P44Q
notes: as for B2
B9: Anti-IL-12 antibody Ab1 variant -/P44S VL (antibody, V domains shown)
VH: B2 VH
VL: B2 VL with Q43A, P44S
notes: as for B2
B10: Anti-IL-12 antibody Ab1 variant -/Y49A VL (antibody, V domains shown)
VH: B2 VH
VL: B2 VL with Q43A, Y49A
notes: as for B2
B11: Anti-IL-12 antibody Ab1 variant -/Y87A VL (antibody, V domains shown)
VH: B2 VH
VL: B2 VL with Q43A, Y87A
notes: as for B2
B12: Anti-IL-12 antibody Ab1 variant -/Y87L VL (antibody, V domains shown)
VH: B2 VH
VL: B2 VL with Q43A, Y87L
notes: as for B2
B13: Anti-IL-12 antibody Ab1 variant -/Y87M VL (antibody, V domains shown)
VH: B2 VH
VL: B2 VL with Q43A, Y87M
notes: as for B2
B14: Anti-IL-12 antibody Ab1 variant F100aI VH/- (antibody, name in Kabat numbering, V domains shown)
VH: B2 VH with F105I
VL: B2 VL with Q43A
notes: Ab1 with a CDR substitution at the VH/VL interface; Kabat numbering
B15: Anti-IL-12 antibody Ab1 variant F100aI VH/A43Q, L46Q, Y49A VL (antibody, name in Kabat numbering, V domains shown)
VH: B2 VH with F105I
VL: B2 VL with L46Q, Y49A
notes: as for B2
B16: Anti-IL-12 antibody Ab1 variant F100aI VH/A43Q, Y49A VL (antibody, name in Kabat numbering, V domains shown)
VH: B2 VH with F105I
VL: B2 VL with Y49A
notes: as for B2
B17: Anti-IL-12 antibody Ab1 variant F100aI VH/L46Q, Y49A VL (antibody, name in Kabat numbering, V domains shown)
VH: B2 VH with F105I
VL: B2 VL with Q43A, L46Q, Y49A
notes: as for B2
B18: Anti-IL-12 antibody Ab1 variant F100aI VH/L46Q, Y49A, Y87M VL (antibody, name in Kabat numbering, V domains shown)
VH: B2 VH with F105I
VL: B2 VL with Q43A, L46Q, Y49A, Y87M
notes: as for B2
B19: Anti-IL-12 antibody Ab1 variant F100aI VH/P44A, Y49A VL (antibody, name in Kabat numbering, V domains shown)
VH: B2 VH with F105I
VL: B2 VL with Q43A, P44A, Y49A
notes: as for B2
B20: Anti-IL-12 antibody Ab1 variant F100aI VH/Y49A, F98L VL (antibody, name in Kabat numbering, V domains shown)
VH: B2 VH with F105I
VL: B2 VL with Q43A, Y49A, F98L
notes: as for B2
B21: Anti-IL-12 antibody Ab1 variant F100aI VH/Y49A, Y87L VL (antibody, name in Kabat numbering, V domains shown)
VH: B2 VH with F105I
VL: B2 VL with Q43A, Y49A, Y87L
notes: as for B2
B22: Anti-IL-12 antibody Ab1 variant G44Q VH/- (antibody, name in Kabat numbering, V domains shown)
VH: B2 VH with G44Q
VL: B2 VL with Q43A
notes: as for B2
B23: Anti-IL-12 antibody Ab1 variant L45A VH/- (antibody, name in Kabat numbering, V domains shown)
VH: B2 VH with L45A
VL: B2 VL with Q43A
notes: as for B2
B24: Anti-IL-12 antibody Ab1 variant L45Q VH/- (antibody, name in Kabat numbering, V domains shown)
VH: B2 VH with L45Q
VL: B2 VL with Q43A
notes: as for B2
B25: Anti-IL-12 antibody Ab1 variant L45Q VH/A43Q, Y49A VL (antibody, name in Kabat numbering, V domains shown)
VH: B2 VH with L45Q
VL: B2 VL with Y49A
notes: as for B2
B26: Anti-IL-12 antibody Ab1 variant L45Q VH/L46Q, Y49A VL (antibody, name in Kabat numbering, V domains shown)
VH: B2 VH with L45Q
VL: B2 VL with Q43A, L46Q, Y49A
notes: as for B2
B27: Anti-IL-12 antibody Ab1 variant L45Q VH/P44A, Y49A VL (antibody, name in Kabat numbering, V domains shown)
VH: B2 VH with L45Q
VL: B2 VL with Q43A, P44A, Y49A
notes: as for B2
B28: Anti-IL-12 antibody Ab1 variant L45Q VH/Y49A, F98M VL (antibody, name in Kabat numbering, V domains shown)
VH: B2 VH with L45Q
VL: B2 VL with Q43A, Y49A, F98M
notes: as for B2
B29: Anti-IL-12 antibody Ab1 variant L45Q VH/Y49A, Y87L VL (antibody, name in Kabat numbering, V domains shown)
VH: B2 VH with L45Q
VL: B2 VL with Q43A, Y49A, Y87L
notes: as for B2
B30: Anti-IL-12 antibody Ab1 variant V37Q VH/- (antibody, name in Kabat numbering, V domains shown)
VH: B2 VH with V37Q
VL: B2 VL with Q43A
notes: as for B2
B31: Anti-IL-12 antibody Ab1 variant V37S VH/- (antibody, name in Kabat numbering, V domains shown)
VH: B2 VH with V37S
VL: B2 VL with Q43A
notes: as for B2
B32: Anti-IL-12 antibody Ab1 variant V37S VH/A43Q, Y49A VL (antibody, name in Kabat numbering)
heavy: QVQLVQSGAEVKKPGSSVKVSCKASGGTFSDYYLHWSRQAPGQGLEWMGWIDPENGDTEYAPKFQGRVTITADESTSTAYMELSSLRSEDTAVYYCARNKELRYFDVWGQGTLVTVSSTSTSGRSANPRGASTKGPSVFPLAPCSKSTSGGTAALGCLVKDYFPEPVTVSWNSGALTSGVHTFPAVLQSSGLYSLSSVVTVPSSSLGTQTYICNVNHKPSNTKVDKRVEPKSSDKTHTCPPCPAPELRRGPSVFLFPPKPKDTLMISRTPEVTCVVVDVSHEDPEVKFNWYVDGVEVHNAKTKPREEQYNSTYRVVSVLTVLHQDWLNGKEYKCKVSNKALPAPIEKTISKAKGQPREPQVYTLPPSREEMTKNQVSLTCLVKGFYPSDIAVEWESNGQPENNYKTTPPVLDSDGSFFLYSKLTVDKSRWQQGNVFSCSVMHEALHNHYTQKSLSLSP
light: B1 light with A43Q, Y49A
notes: as for B2
B33: Anti-IL-12 antibody Ab1 variant V37S VH/L46Q, Y49A VL (antibody, name in Kabat numbering, V domains shown)
VH: B2 VH with V37S
VL: B2 VL with Q43A, L46Q, Y49A
notes: as for B2
B34: Anti-IL-12 antibody Ab1 variant V37S VH/L46Q, Y49A, Y87M VL (antibody, name in Kabat numbering, V domains shown)
VH: B2 VH with V37S
VL: B2 VL with Q43A, L46Q, Y49A, Y87M
notes: as for B2
B35: Anti-IL-12 antibody Ab1 variant V37S VH/P44A, Y49A VL (antibody, name in Kabat numbering, V domains shown)
VH: B2 VH with V37S
VL: B2 VL with Q43A, P44A, Y49A
notes: as for B2
B36: Anti-IL-12 antibody Ab1 variant V37S VH/Y49A, F98L VL (antibody, name in Kabat numbering, V domains shown)
VH: B2 VH with V37S
VL: B2 VL with Q43A, Y49A, F98L
notes: as for B2

These binders were tested against T1, human IL-12 (assay: SPR (Biacore T200), 37 C, pH 7.4; captured antibody, IL-12 analyte).
Protocol: The affinity of anti-IL-12 antibodies binding to human IL-12 at pH 7.4 were determined at 37 degrees C. using Biacore T200 instrument (Cytiva). Anti-human Fc antibody (Cytiva) was immobilized onto all flow cells (FCs) of a CM4 sensor chip using amine coupling kit (Cytiva). All antibodies and analytes were prepared in ACES pH 7.4 containing 20 mM ACES, 150 mM NaCl, 0.05% Tween 20, 0.005% NaN₃. Each antibody was captured onto the sensor surface by anti-human Fc antibody. Antibody capture levels were aimed at 50 response unit (RU). 5 nM of human IL-12 were injected as analyte, followed by dissociation. Sensor surface was regenerated each cycle with 3M MgCl₂. […] Based on the results in Table 9, it is observed that binding kinetics of anti-IL-12 antibody AbI variants towards IL-12 were not drastically changed compared to control (−/−).

Binder | Kd
B1 | 0.948 nM
B2 | 0.937 nM
B3 | 1.03 nM
B4 | 0.499 nM
B5 | 0.685 nM
B6 | 1.62 nM
B7 | 0.858 nM
B8 | 0.94 nM
B9 | 1.17 nM
B10 | 1.74 nM
B11 | 1.21 nM
B12 | 1.46 nM
B13 | 1.22 nM
B14 | 0.571 nM
B15 | 3.56 nM
B16 | 1.33 nM
B17 | 3.48 nM
B18 | 3.68 nM

Binder | Kd
B19 | 1.25 nM
B20 | 1.44 nM
B21 | 2.1 nM
B22 | 0.793 nM
B23 | 1.27 nM
B24 | 1.3 nM
B25 | 2.23 nM
B26 | 2.82 nM
B27 | 2.74 nM
B28 | 3.27 nM
B29 | 3.61 nM
B30 | 1.48 nM
B31 | 0.789 nM
B32 | 1.49 nM
B33 | 3.06 nM
B34 | 3.87 nM
B35 | 2.96 nM
B36 | 0.982 nM
